Results on five molecules are retold here after patent US20200102347A1 (AUCTUS BIOLOGIES, published 2020).

Substitutions are numbered along the chain they refer to. Names and notes keep the numbering of the source. No end group written: not given here. *: point of attachment. RhodamineB = CCN(CC)c1ccc2c(-c3ccccc3C(=O)*)c3ccc(=[N+](CC)CC)cc-3oc2c1

The target in experiment [1] is T1, NativeRPtag(large)_with_Tags_and_Cys (Thermoanaerobacter tengcongensis).
T1 construct: Unlabeled in anisotropy assays; coupled through the engineered N-terminal Cys to SulfoLink agarose or maleimide plates in column, pull-down and ELISA assays
T1 chain: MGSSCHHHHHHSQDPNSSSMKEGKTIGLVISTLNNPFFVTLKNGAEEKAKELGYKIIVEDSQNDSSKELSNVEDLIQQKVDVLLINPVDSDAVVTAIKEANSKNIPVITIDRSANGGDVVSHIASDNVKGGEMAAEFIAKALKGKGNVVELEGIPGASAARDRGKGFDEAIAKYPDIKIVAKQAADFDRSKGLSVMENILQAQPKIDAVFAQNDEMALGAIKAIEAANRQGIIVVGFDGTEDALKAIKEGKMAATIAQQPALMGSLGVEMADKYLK
In words: fluorescence anisotropy, competitor chase; 50 mM Tris pH 8.0, 0.005% Tween 20, no additive.

Experiment [2] addresses T1, NativeRPtag(large)_with_Tags_and_Cys. In words: fluorescence anisotropy; acetone (20%). A general note: In fluorescence polarisation assays a small probe gives low polarisation when free and higher when bound to something large.
The target is the same in experiment [3]. In words: fluorescence anisotropy; glycerol (20%).
Experiment [4] shares this target. In words: calculated from koff and Kd; no additive; calculated in the text from koff and Kd.
For experiment [5] the target is unchanged. In words: fluorescence anisotropy; Tween20 (2%).
A further experiment addresses T2, Bovine Serum Albumin (bovine, UniProt P02769 25-607).
T2 construct: also called BSA
Description: fluorescence anisotropy; 1 nM rhodamine native RPtag (small), BSA titrated.

Experiment [6] has as its target T1, NativeRPtag(large)_with_Tags_and_Cys. In words: fluorescence anisotropy; DTT (100 mM).
Experiment [7] has the same target. Description: fluorescence anisotropy; MgCl2 (3M).
For experiment [8] the target is unchanged. In words: fluorescence anisotropy, chase with 0.1 mM unlabeled native RPtag small, first order fit; no additive; first order fit of the dissociation traces (n=15).
Description: Data processing was done as in panel a, except the red fits were to the single exponential decay equation y=y0+A*exp(−b*t).
Panel e is a graph of the initial rates of the traces represented in d. […] Data are mean±SE (n=3).
For experiment [9] the target is unchanged. Description: fluorescence anisotropy; EtOH (20%).
For experiment [10] the target is unchanged. Description: fluorescence anisotropy; NiCl2 (100 mM).
Experiment [11] has the same target. In words: fluorescence anisotropy, association kinetics.
Experiment [12] shares this target. In words: fluorescence anisotropy; PG (50%).
Experiment [13] has the same target. In words: fluorescence anisotropy; NH4SO4 (3M).
The target is the same in experiment [14]. In words: fluorescence anisotropy; DMSO (20%).
Experiment [15] shares this target. In words: fluorescence anisotropy; sorbitol (3M).
Experiment [16] shares this target. Description: fluorescence anisotropy; MeOH (20%).
Experiment [17] has the same target. In words: fluorescence anisotropy; 50 mM Tris pH 8.0, 0.005% Tween 20, no additive.
For experiment [18] the target is unchanged. In words: fluorescence anisotropy; ribose (3M).
Experiment [19] shares this target. Description: fluorescence anisotropy; BME (10%).
The target is the same in experiment [20]. Description: calculated from koff and Kd; 50 mM Tris pH 8.0, 0.005% Tween 20, no additive.
For experiment [21] the target is unchanged. Description: fluorescence anisotropy; KCl (3M).
The target is the same in experiment [22]. In words: fluorescence anisotropy; CaCl2 (3M).
Experiment [23] has the same target. Description: fluorescence anisotropy; TritonX-100 (2%).
Experiment [24] has the same target. Description: fluorescence anisotropy; MnSO4 (10 mM).
Experiment [25] shares this target. Description: fluorescence anisotropy; No Additive.
The target is the same in experiment [26]. Description: fluorescence anisotropy; NaCl (3M).
The next experiment addresses T3, RPtag(large) f137d (Thermoanaerobacter tengcongensis).
T3 construct: also called F137D RPtag(large)
T3 chain: T1 chain with F137D
Description: fluorescence anisotropy (FIG. 14).

For experiment [27], the target named is T1, NativeRPtag(large)_with_Tags_and_Cys. In words: immobilized RPtag(large) column; bound in 3 M NaCl, eluted with 3 M imidazole.
Description: Briefly, columns, as described above, were first equilibrated with 10 mL 100 mM Tris pH 8.0, 3 M NaCl, 0.005% Tween20. […] The column was then washed with 10 mL of the same buffer. Finally, bound target molecules were eluted with 10 mL of 100 mM Tris pH 8.0, 3 M imidazole, 0.005% Tween20.
A further experiment deals with T4, RPtag(small) Nd2, Cd4 (Thermoanaerobacter tengcongensis).
T4 peptide: RhodamineB-KIPNFIPAELKLITK
Description: fluorescence anisotropy, 2 nM rhodamine Nd2Cd4.

For experiment [28], the target named is T5, MaturePDGF-β_NterminalPeptide.
T5 construct: an N-terminal G was added and is left out of the numbering; also called PDGF-β peptide
T5 peptide: RhodamineB-GSLGSLTIAEPAMIAE
In words: fluorescence anisotropy, 20 nM rhodamine PDGF-β N-terminal peptide.
Description: (§1) After the incubation, fluorescence anisotropy was measured, and the resultant curves were fit with the equation f=y0+(ymax−y0)*(Ptot+x+Kd−sqrt((Ptot+x+Kd)\hat{ }2−4*Ptot*x))/(2*Ptot), where y0 is the baseline anisotropy, ymax is the maximum anisotropy, Ptot is the fixed concentration of labeled peptide used, x is the variable concentration of protein used, and Kd is the measured Kd. […] Buffer was 50 mM Tris pH 8.0, 0.005% Tween20.

For experiment [29], the target named is T6, PDGF-β dimer (recombinant, purified and refolded mature PDGF-β) (Homo sapiens (Human), UniProt P01127 82-190).
T6 construct: also called mature PDGF-β dimer
T6 sequence (P01127 82-190): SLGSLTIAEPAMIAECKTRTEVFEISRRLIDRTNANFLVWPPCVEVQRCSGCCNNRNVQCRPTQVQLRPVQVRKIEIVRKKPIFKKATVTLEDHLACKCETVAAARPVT
Description: fluorescence anisotropy; 100 nM FITC-labeled RPtag large double mutant, unlabeled PDGF-β dimer titrated, 1 h at room temperature.
Description: After 1 h incubation at room temperature, fluorescence anisotropy was measured, and the resultant curves were fit to a standard binding equation.

Experiment [30] has as its target T1, NativeRPtag(large)_with_Tags_and_Cys. Description: fluorescence anisotropy; No Additive; No Additive; 100 mM Tris pH 8.0, 0.005% Tween 20 (Table 3).
For experiment [31] the target is unchanged. Description: competition fluorescence anisotropy; 1 µM RPtag large and 1 µM rhodamine PDGF-β N-terminal peptide (the displaced ligand), unlabeled Nd2,p5a,e18a titrated, 1 h; 50 mM Tris pH 8.0, 0.005% Tween20.
Description: The curves were fit with the equation f=y0+(ymax−y0)*(Ptot+x+Kd−sqrt((Ptot+x+Kd)\hat{ }2−4*Ptot*x))/(2*Ptot), where y0 is the baseline anisotropy, ymax is the maximum anisotropy, Ptot is the fixed concentration of labeled peptide used, x is the variable concentration of protein used, and Kd is the measured Kd. […] The curves were fit empirically to a 4 parameter logistic regression. In both cases, the buffer was 50 mM Tris pH 8.0, 0.005% Tween20. Curves were fit in 4 independent trials each, and the data was averaged for display. Points are mean±SEM (n=3).

T2 sequence (P02769 25-607 limits assumed): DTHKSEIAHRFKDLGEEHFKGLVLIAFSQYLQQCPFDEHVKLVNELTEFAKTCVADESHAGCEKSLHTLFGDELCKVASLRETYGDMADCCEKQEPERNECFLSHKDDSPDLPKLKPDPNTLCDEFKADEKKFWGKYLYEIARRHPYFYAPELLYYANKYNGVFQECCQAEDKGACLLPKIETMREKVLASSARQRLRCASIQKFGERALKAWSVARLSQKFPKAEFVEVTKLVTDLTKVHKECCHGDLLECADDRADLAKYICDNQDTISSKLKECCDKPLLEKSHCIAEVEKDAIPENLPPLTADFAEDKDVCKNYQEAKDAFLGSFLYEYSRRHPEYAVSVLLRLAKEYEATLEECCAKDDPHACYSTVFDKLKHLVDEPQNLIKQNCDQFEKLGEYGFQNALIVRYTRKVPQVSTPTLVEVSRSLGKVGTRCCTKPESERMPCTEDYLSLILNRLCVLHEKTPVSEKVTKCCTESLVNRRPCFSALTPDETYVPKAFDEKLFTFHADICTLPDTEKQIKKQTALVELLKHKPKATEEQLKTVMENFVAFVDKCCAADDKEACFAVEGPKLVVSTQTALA
Description for Bovine Serum Albumin: Kd's were calculated according to the equation f=y0+(ymax−y0)*(Ptot+x+Kd−sqrt((Ptot+x+Kd)\hat{ }2−4*Ptot*x))/(2*Ptot), where y0 is the baseline anisotropy, ymax is the maximum anisotropy, Ptot is the fixed concentration of labeled peptide used, x is the variable concentration of protein used, and Kd is the measured Kd.
Description for RPtag(large) f137d: Resultant curves were fit with the equation f=y0+(ymax−y0)*(Ptot+x+Kd−sqrt((Ptot+x+Kd)\hat{ }2−4*Ptot*x))/(2*Ptot), where y0 is the baseline anisotropy, ymax is the maximum anisotropy, Ptot is the fixed concentration of labeled peptide used, x is the variable concentration of protein used, and Kd is the measured Kd. […] Buffer was 50 mM Tris pH 8.0, 0.005% tween20.
Description for RPtag(small) Nd2, Cd4: as §1

For RhodamineB-GEKIPNFIPAELKLITKENVQ (Synthetic peptide) [native RPtag(small)], the koff (usually a measure of how fast the partners let go of each other) was 0.000152 s⁻¹ in [1] and 0.0002 s⁻¹ in experiment [8]. For the same molecule, the Kd (in general, the concentration at which binding is half-saturated) in [2] was determined as 0.15 nM; in [3], 0.034 nM; in experiment [5], 0.49 nM; in experiment [6] it was 0.51 nM; in experiment [7], 124 nM; in experiment [9], 0.17 nM. In addition, the Kd in [10] worked out at 3.2 nM; in experiment [12] it was 19 nM; in [13], 1.5 nM; in experiment [14] it was 0.17 nM; in experiment [15], 2.5 nM; in [16], 0.11 nM. The Kd in experiment [17] is 0.21 nM; in [18] it was 0.023 nM; in [19], 5.3 nM; in experiment [21] it was less than 0.001 nM; in experiment [22], 330 nM; in experiment [23], 0.64 nM. In addition, the Kd turned out to be 160 nM in [24], 0.21 nM in [25] and 0.0027 nM in experiment [26]. For the same molecule, the kon (in general, the rate constant with which the complex forms) in experiment [4] is roughly 767000 M⁻¹ s⁻¹; in experiment [20], 717000 M⁻¹ s⁻¹. The binding result in the experiment with Bovine Serum Albumin is “no binding”. Also, the “Keq (S-S*)” value in experiment [11] was 1.6. Further, in experiment [11], the “kf (S to S*)” value stood at 0.092 min⁻¹. In addition, in experiment [11], the “kr (S* to S)” value was 0.056 min⁻¹.
Take RhodamineB-GEKIPNFIPAELKKITKENVQ (also called L14K RPtag(small)) [RPtag(small) l14k]: the binding result with RPtag(large) f137d was “binds”.

B1: Nterminally_tagged_RPtag(small)Nd8,Cd4(fast)_tagRFP (other)
chain: MGSSPAELKLITKGSENLYFQGGSMVSKGEELIKENMHMKLYMEGTVNNHHFKCTSEGEGKPYEGTQTMRIKVVEGGPLPFAFDILATSFMYGSRTFINHTQGIPDFFKQSFPEGFTWERVTTYEDGGVLTATQDTSLQDGCLIYNVKIRGVNFPSNGPVMQKKTLGWEANTEMLYPADGGLEGRSDMALKLVGGGHLICNFKTTYRSKKPAKNLKMPGVYYVDHRLERIKEADKETYVEQHEVAVARYCDLPSKLGHKLNGSSGHHHHHHHH
notes: also called tagRFP containing an N-terminal RPtag (small) Nd8Cd4 tag
Regarding B1, in experiment [27], the binding result is “binds”.

B2: RPtag(large) H122L, A253R double mutant (designed binder)
chain: T1 chain with H122L, A253R
notes: Unlabeled against the rhodamine peptides; also called RPtag (large) h1221, a253r; double mutant RPtag(large)
For the molecule B2, the Kd in the experiment with RPtag(small) Nd2, Cd4 was found to be 3.1 nM; in experiment [28], 1500 nM; in [29], 75 nM.

B3: RPtag(small) Nd2, p5a, e18a (peptide)
peptide: RhodamineB-KIANFIPAELKLITKANVQ
modifications: also: also used unlabeled as competitor
notes: Rhodamine labeled in the Kd assays; also called RPtag(small) (tight)
B3 displayed a koff in experiment [1] of 0.000217 s⁻¹. The Kd in experiment [2] was 0.019 nM; in experiment [3], less than 0.001 nM; in [5], 4.7 nM; in experiment [30], 0.037 nM; in experiment [6], 0.073 nM; in [7] it was 350 nM. In addition, the Kd in experiment [9] was 0.1 nM; in experiment [10] it was 2.2 nM; in experiment [12], 49 nM; in [13], 44 nM; in experiment [14], 0.023 nM; in experiment [15] it was less than 0.001 nM. Also, the Kd in experiment [16] was 0.056 nM; in experiment [17], 0.047 nM; in [18] it was less than 0.001 nM; in experiment [19], 6.7 nM; in [21], 0.011 nM; in [22], 150 nM. Besides, the Kd is 0.046 nM in [23], 22 nM in experiment [24] and less than 0.001 nM in experiment [26]. Moreover, the “IC50 (read off the curve)” value in [31] is roughly 500 nM. In addition, the on-rate constant (kon) in experiment [20] is 4.67e+06 M⁻¹ s⁻¹.
